Measurements taken from US20260209349A1 (IMBIORAY HANGZHOU BIOMEDICINE, published 2026).

Columns and labels:
Human CD33 = Human CD33 (human, UniProt P20138 18-259); assay: BLI, affinity to target
Human CLL1 = molecular target: T1, Human CLL1 (human, UniProt Q5QGZ9 65-265, limits assumed); assay: BLI, affinity to target
T1 construct: also called C-type lectin-like molecule 1
T1 sequence (looked up): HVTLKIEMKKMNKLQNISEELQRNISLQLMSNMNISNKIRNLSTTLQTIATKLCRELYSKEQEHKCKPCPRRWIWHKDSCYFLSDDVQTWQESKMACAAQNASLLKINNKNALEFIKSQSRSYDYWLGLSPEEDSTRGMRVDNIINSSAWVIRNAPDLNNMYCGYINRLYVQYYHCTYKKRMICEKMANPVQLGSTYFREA

Sequence of Human CD33 (P20138 18-259 limits assumed): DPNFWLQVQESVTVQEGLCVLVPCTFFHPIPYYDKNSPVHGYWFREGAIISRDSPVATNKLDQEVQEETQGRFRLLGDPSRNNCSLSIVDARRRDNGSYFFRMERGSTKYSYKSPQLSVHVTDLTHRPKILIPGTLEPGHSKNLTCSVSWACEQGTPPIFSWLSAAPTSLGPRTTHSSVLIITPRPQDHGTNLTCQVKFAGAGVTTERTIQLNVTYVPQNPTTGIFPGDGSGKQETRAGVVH

B1: Anti-CD33-CLL1 bispecific antibody (bispecific antibody, human IgG1, kappa)
heavy 1: not shown
light 1: not shown
heavy 2: not shown
light 2: DIQMTQSPSSLSASVGDRVTITCRASESVDNYGISFMNWFQQKPGKAPKLLIYAASNQGSGVPSRFSGSGSGTDFTLTISSLQPDDFATYYCQQSKEVPWTFGQGTKVEIKRTVAAPSVFIFPPSDEQLKSGTASVVCLLNNFYPREAKVQWKVDNALQSGNSQESVTEQDSKDSTYSLSSTLTLSKADYEKHKVYACEVTHQGLSSPVTKSFNRGEC
notes: Copies '1' follow from this arm exchange; also called anti-CD33/CLL1 antibody
Question: Which results are given for B1?
Answer: Kd (Human CD33): 5.5 nM; Kd (Human CLL1): 26 nM
